Data on two molecules can be found in article PMC11301063, “The Musashi-1–type 2 deiodinase pathway regulates astrocyte proliferation”.

Series [1] has as its target T1, Musashi-1 (MSI1) (Mus musculus (mouse), UniProt Q61474 1-362). Kind of series: EMSA; 1 ug protein incomplete shift (two bands), 1.5 ug complete shift of 80 fmol probe; REMSA 1x binding buffer (LightShift kit), 0.125 mg/ml BSA, 80 fmol RNA, 1.5 ug protein, 20 ul, 20 min at RT; native 6% PAGE in 0.5x TBE pH 7.5 at 4 C; protein dialyzed in 20 mM TBE, 5 mM DTT. The conditions noted are these: protein: recombinant; tags: His tag; label: 3' biotin; single strand.

In series [2] the target is T1, Musashi-1 (MSI1). Kind of series: competition; free probe restored at 1250x (100 pmol) unlabeled RNA; 1.5 ug protein, 80 fmol labeled N1; REMSA 1x binding buffer (LightShift kit), 0.125 mg/ml BSA, 80 fmol RNA, 1.5 ug protein, 20 ul, 20 min at RT; native 6% PAGE in 0.5x TBE pH 7.5 at 4 C; protein dialyzed in 20 mM TBE, 5 mM DTT. The conditions noted are these: protein: recombinant; tags: His tag; label: none; single strand.

T1 sequence (Q61474 whole entry): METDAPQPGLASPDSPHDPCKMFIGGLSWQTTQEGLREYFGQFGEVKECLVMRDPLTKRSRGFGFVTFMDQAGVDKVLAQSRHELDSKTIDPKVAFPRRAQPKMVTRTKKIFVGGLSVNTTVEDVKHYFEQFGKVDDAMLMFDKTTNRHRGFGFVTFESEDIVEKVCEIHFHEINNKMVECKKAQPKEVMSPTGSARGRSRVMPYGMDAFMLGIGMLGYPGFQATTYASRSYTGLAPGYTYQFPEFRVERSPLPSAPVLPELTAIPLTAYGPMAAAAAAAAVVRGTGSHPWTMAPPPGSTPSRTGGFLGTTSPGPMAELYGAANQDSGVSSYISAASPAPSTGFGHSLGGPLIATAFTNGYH

Regarding GUUUAUAGCUAGAUUAGUUUAGCUGAAAGUUAAGUAGUUUGCAA (ssRNA) [cDio2 3'UTR RNA probe nt 2582-2625], the binding result in series [1] is reported as “binds”. In the case of GUUUAUAGCUAGAUUAGUUUAGCUGAAAGUUAAGUAGUUUGCAA (ssRNA) [unlabeled cDio2 3'UTR RNA competitor], the binding result in series [2] was “binds”.
